Among the data in US20050113304A1 are inhibition of BttxB activity relative to B-I (% as effective as B-I) and inhibition of BttxB endoprotease activity (cleavage of VAMP2 55-94, RP-HPLC) values, retold here.

This assay deals with Botulinum toxin B (UniProt P10844). Put plainly: cell-based or functional assay.

Substance Buforin II (peptide) returned an inhibition of BttxB activity relative to B-I (% as effective as B-I) of 25.

The substance Buforin I (peptide) yielded an inhibition of BttxB endoprotease activity (cleavage of VAMP2 55-94, RP-HPLC) of 1000 nM.
